± gives the uncertainty stated by the source.
assay: abundance fitness (aPCA) (normalised: wild type 0, dead -1); higher = more abundant; growth selection in yeast, the domain comes from the species named; details: Homo sapiens

Q: Which abundance fitness does the source give for “BAG family molecular chaperone regulator 3 G17I, O95817” here?
A: The abundance fitness was 0.73 ± 0.092.

Q: With “BAG family molecular chaperone regulator 3 G17K, O95817” as the substance, how does the abundance fitness read?
A: Its abundance fitness is 0.564 ± 0.093.

Q: Which abundance fitness does the source give for “BAG family molecular chaperone regulator 3 G17L, O95817” here?
A: The abundance fitness was 0.282 ± 0.087.

Q: With “BAG family molecular chaperone regulator 3 G17M, O95817” as the substance, how does the abundance fitness read?
A: The abundance fitness was 0.25 ± 0.21.

Q: Which abundance fitness does the source give for “BAG family molecular chaperone regulator 3 G17N, O95817” here?
A: The abundance fitness was 0.913 ± 0.13.

Q: Which abundance fitness does the source give for “BAG family molecular chaperone regulator 3 G17P, O95817” here?
A: The abundance fitness was 1.15 ± 0.12.

Q: Which abundance fitness does the source give for “BAG family molecular chaperone regulator 3 G17Q, O95817” here?
A: The abundance fitness was 0.968 ± 0.098.

Q: With “BAG family molecular chaperone regulator 3 G17R, O95817” as the substance, how does the abundance fitness read?
A: Its abundance fitness is 0.791 ± 0.06.

Q: For “BAG family molecular chaperone regulator 3 G17S, O95817”, which abundance fitness is on record?
A: The abundance fitness was 0.82 ± 0.073.

Q: Which abundance fitness does the source give for “BAG family molecular chaperone regulator 3 G17T, O95817” here?
A: The abundance fitness was 0.943 ± 0.083.

Q: With “BAG family molecular chaperone regulator 3 G17W, O95817” as the substance, how does the abundance fitness read?
A: The abundance fitness was 0.329 ± 0.083.

Q: With “BAG family molecular chaperone regulator 3 G17Y, O95817” as the substance, how does the abundance fitness read?
A: The abundance fitness was 0.213 ± 0.22.

Q: With “BAG family molecular chaperone regulator 3 G25A, O95817” as the substance, how does the abundance fitness read?
A: Its abundance fitness is -0.712 ± 0.17.

Q: Which abundance fitness does the source give for “BAG family molecular chaperone regulator 3 G25C, O95817” here?
A: The abundance fitness was -0.74 ± 0.17.

Q: Which abundance fitness does the source give for “BAG family molecular chaperone regulator 3 G25D, O95817” here?
A: Its abundance fitness is -0.548 ± 0.23.

Q: For “BAG family molecular chaperone regulator 3 G25H, O95817”, which abundance fitness is on record?
A: The abundance fitness was -0.125 ± 0.065.

Q: With “BAG family molecular chaperone regulator 3 G25K, O95817” as the substance, how does the abundance fitness read?
A: The abundance fitness was -0.492 ± 0.23.

Q: With “BAG family molecular chaperone regulator 3 G25L, O95817” as the substance, how does the abundance fitness read?
A: Its abundance fitness is -0.784 ± 0.19.

Q: For “BAG family molecular chaperone regulator 3 G25M, O95817”, which abundance fitness is on record?
A: Its abundance fitness is -0.652 ± 0.075.

Q: Which abundance fitness does the source give for “BAG family molecular chaperone regulator 3 G25N, O95817” here?
A: The abundance fitness was 0.081 ± 0.21.

Q: For “BAG family molecular chaperone regulator 3 G25Q, O95817”, which abundance fitness is on record?
A: The abundance fitness was -1.03 ± 0.27.

Q: Which abundance fitness does the source give for “BAG family molecular chaperone regulator 3 G25R, O95817” here?
A: The abundance fitness was -0.432 ± 0.14.

Q: Which abundance fitness does the source give for “BAG family molecular chaperone regulator 3 G25S, O95817” here?
A: The abundance fitness was -0.726 ± 0.19.

Q: With “BAG family molecular chaperone regulator 3 G25T, O95817” as the substance, how does the abundance fitness read?
A: Its abundance fitness is -0.667 ± 0.22.

Q: Which abundance fitness does the source give for “BAG family molecular chaperone regulator 3 G25V, O95817” here?
A: The abundance fitness was -1.23 ± 0.33.

Q: Which abundance fitness does the source give for “BAG family molecular chaperone regulator 3 G25W, O95817” here?
A: The abundance fitness was -0.875 ± 0.34.

Q: With “BAG family molecular chaperone regulator 3 G35A, O95817” as the substance, how does the abundance fitness read?
A: The abundance fitness was 0.335 ± 0.063.

Q: With “BAG family molecular chaperone regulator 3 G35C, O95817” as the substance, how does the abundance fitness read?
A: The abundance fitness was 0.146 ± 0.17.

Q: For “BAG family molecular chaperone regulator 3 G35D, O95817”, which abundance fitness is on record?
A: The abundance fitness was 0.202 ± 0.13.

Q: With “BAG family molecular chaperone regulator 3 G35F, O95817” as the substance, how does the abundance fitness read?
A: The abundance fitness was -0.552 ± 0.11.

Q: With “BAG family molecular chaperone regulator 3 G35H, O95817” as the substance, how does the abundance fitness read?
A: The abundance fitness was 0.552 ± 0.28.

Q: Which abundance fitness does the source give for “BAG family molecular chaperone regulator 3 G35K, O95817” here?
A: Its abundance fitness is 0.766 ± 0.078.

Q: Which abundance fitness does the source give for “BAG family molecular chaperone regulator 3 G35L, O95817” here?
A: The abundance fitness was -0.184 ± 0.14.

Q: For “BAG family molecular chaperone regulator 3 G35M, O95817”, which abundance fitness is on record?
A: The abundance fitness was -0.158 ± 0.16.

Q: For “BAG family molecular chaperone regulator 3 G35N, O95817”, which abundance fitness is on record?
A: The abundance fitness was 1.26 ± 0.22.

Q: Which abundance fitness does the source give for “BAG family molecular chaperone regulator 3 G35P, O95817” here?
A: The abundance fitness was -0.237 ± 0.21.

Q: For “BAG family molecular chaperone regulator 3 G35Q, O95817”, which abundance fitness is on record?
A: Its abundance fitness is 0.41 ± 0.11.

Q: Which abundance fitness does the source give for “BAG family molecular chaperone regulator 3 G35R, O95817” here?
A: The abundance fitness was 0.366 ± 0.078.

Q: With “BAG family molecular chaperone regulator 3 G35S, O95817” as the substance, how does the abundance fitness read?
A: The abundance fitness was 0.442 ± 0.064.

Q: Which abundance fitness does the source give for “BAG family molecular chaperone regulator 3 G35T, O95817” here?
A: The abundance fitness was -0.006 ± 0.11.

Q: With “BAG family molecular chaperone regulator 3 G35V, O95817” as the substance, how does the abundance fitness read?
A: The abundance fitness was -0.589 ± 0.16.

Q: Which abundance fitness does the source give for “BAG family molecular chaperone regulator 3 G35W, O95817” here?
A: The abundance fitness was -0.726 ± 0.19.

Q: Which abundance fitness does the source give for “BAG family molecular chaperone regulator 3 G35Y, O95817” here?
A: The abundance fitness was -0.304 ± 0.24.

Q: Which abundance fitness does the source give for “BAG family molecular chaperone regulator 3 G58A, O95817” here?
A: The abundance fitness was -0.45 ± 0.15.

Q: With “BAG family molecular chaperone regulator 3 G58C, O95817” as the substance, how does the abundance fitness read?
A: Its abundance fitness is -0.17 ± 0.25.

Q: Which abundance fitness does the source give for “BAG family molecular chaperone regulator 3 G58D, O95817” here?
A: Its abundance fitness is 0.238 ± 0.18.

Q: With “BAG family molecular chaperone regulator 3 G58E, O95817” as the substance, how does the abundance fitness read?
A: Its abundance fitness is -0.045 ± 0.18.

Q: For “BAG family molecular chaperone regulator 3 G58F, O95817”, which abundance fitness is on record?
A: The abundance fitness was -0.382 ± 0.37.

Q: For “BAG family molecular chaperone regulator 3 G58H, O95817”, which abundance fitness is on record?
A: The abundance fitness was -0.263 ± 0.1.

Q: For “BAG family molecular chaperone regulator 3 G58I, O95817”, which abundance fitness is on record?
A: The abundance fitness was 0.138 ± 0.28.

Q: With “BAG family molecular chaperone regulator 3 G58L, O95817” as the substance, how does the abundance fitness read?
A: The abundance fitness was -0.211 ± 0.2.

Q: For “BAG family molecular chaperone regulator 3 G58M, O95817”, which abundance fitness is on record?
A: The abundance fitness was 0.512 ± 0.17.

Q: Which abundance fitness does the source give for “BAG family molecular chaperone regulator 3 G58N, O95817” here?
A: Its abundance fitness is 0.51 ± 0.35.

Q: Which abundance fitness does the source give for “BAG family molecular chaperone regulator 3 G58P, O95817” here?
A: Its abundance fitness is -0.032 ± 0.29.

Q: With “BAG family molecular chaperone regulator 3 G58Q, O95817” as the substance, how does the abundance fitness read?
A: Its abundance fitness is 0.85 ± 0.19.

Q: For “BAG family molecular chaperone regulator 3 G58R, O95817”, which abundance fitness is on record?
A: The abundance fitness was -0.214 ± 0.08.

Q: With “BAG family molecular chaperone regulator 3 G58S, O95817” as the substance, how does the abundance fitness read?
A: Its abundance fitness is -0.193 ± 0.11.

Q: For “BAG family molecular chaperone regulator 3 G58V, O95817”, which abundance fitness is on record?
A: Its abundance fitness is -0.129 ± 0.064.

Q: For “BAG family molecular chaperone regulator 3 G58W, O95817”, which abundance fitness is on record?
A: The abundance fitness was -0.682 ± 0.29.

Q: Which abundance fitness does the source give for “BAG family molecular chaperone regulator 3 H42A, O95817” here?
A: The abundance fitness was -0.857 ± 0.15.

Q: Which abundance fitness does the source give for “BAG family molecular chaperone regulator 3 H42C, O95817” here?
A: Its abundance fitness is -0.457 ± 0.33.

Q: Which abundance fitness does the source give for “BAG family molecular chaperone regulator 3 H42E, O95817” here?
A: The abundance fitness was -0.738 ± 0.33.

Q: With “BAG family molecular chaperone regulator 3 H42G, O95817” as the substance, how does the abundance fitness read?
A: The abundance fitness was -0.65 ± 0.09.

Q: With “BAG family molecular chaperone regulator 3 H42I, O95817” as the substance, how does the abundance fitness read?
A: The abundance fitness was -0.625 ± 0.29.

Q: For “BAG family molecular chaperone regulator 3 H42K, O95817”, which abundance fitness is on record?
A: Its abundance fitness is -0.942 ± 0.42.

Q: With “BAG family molecular chaperone regulator 3 H42L, O95817” as the substance, how does the abundance fitness read?
A: The abundance fitness was -0.641 ± 0.18.

Q: Which abundance fitness does the source give for “BAG family molecular chaperone regulator 3 H42M, O95817” here?
A: The abundance fitness was -0.37 ± 0.11.

Q: With “BAG family molecular chaperone regulator 3 H42P, O95817” as the substance, how does the abundance fitness read?
A: Its abundance fitness is -0.788 ± 0.13.

Q: Which abundance fitness does the source give for “BAG family molecular chaperone regulator 3 H42R, O95817” here?
A: Its abundance fitness is -0.448 ± 0.18.

Q: With “BAG family molecular chaperone regulator 3 H42S, O95817” as the substance, how does the abundance fitness read?
A: Its abundance fitness is -0.678 ± 0.25.

Q: Which abundance fitness does the source give for “BAG family molecular chaperone regulator 3 H42T, O95817” here?
A: The abundance fitness was -0.55 ± 0.21.

Q: Which abundance fitness does the source give for “BAG family molecular chaperone regulator 3 H42W, O95817” here?
A: The abundance fitness was -0.886 ± 0.14.

Q: Which abundance fitness does the source give for “BAG family molecular chaperone regulator 3 H42Y, O95817” here?
A: The abundance fitness was -0.55 ± 0.088.

Q: With “BAG family molecular chaperone regulator 3 I28A, O95817” as the substance, how does the abundance fitness read?
A: The abundance fitness was -0.423 ± 0.2.

Q: For “BAG family molecular chaperone regulator 3 I28C, O95817”, which abundance fitness is on record?
A: Its abundance fitness is -0.375 ± 0.22.

Q: Which abundance fitness does the source give for “BAG family molecular chaperone regulator 3 I28D, O95817” here?
A: Its abundance fitness is -0.503 ± 0.18.

Q: Which abundance fitness does the source give for “BAG family molecular chaperone regulator 3 I28E, O95817” here?
A: The abundance fitness was 0.316 ± 0.11.

Q: For “BAG family molecular chaperone regulator 3 I28G, O95817”, which abundance fitness is on record?
A: The abundance fitness was -0.088 ± 0.08.

Q: Which abundance fitness does the source give for “BAG family molecular chaperone regulator 3 I28L, O95817” here?
A: Its abundance fitness is -0.444 ± 0.17.

Q: Which abundance fitness does the source give for “BAG family molecular chaperone regulator 3 I28M, O95817” here?
A: The abundance fitness was 0.248 ± 0.14.

Q: For “BAG family molecular chaperone regulator 3 I28N, O95817”, which abundance fitness is on record?
A: The abundance fitness was 0.206 ± 0.3.

Q: Which abundance fitness does the source give for “BAG family molecular chaperone regulator 3 I28P, O95817” here?
A: The abundance fitness was -0.713 ± 0.28.

Q: With “BAG family molecular chaperone regulator 3 I28Q, O95817” as the substance, how does the abundance fitness read?
A: The abundance fitness was -0.307 ± 0.22.

Q: For “BAG family molecular chaperone regulator 3 I28R, O95817”, which abundance fitness is on record?
A: The abundance fitness was 0.171 ± 0.066.

Q: Which abundance fitness does the source give for “BAG family molecular chaperone regulator 3 I28S, O95817” here?
A: Its abundance fitness is 0.183 ± 0.083.

Q: Which abundance fitness does the source give for “BAG family molecular chaperone regulator 3 I28T, O95817” here?
A: Its abundance fitness is -0.636 ± 0.29.

Q: With “BAG family molecular chaperone regulator 3 I28V, O95817” as the substance, how does the abundance fitness read?
A: Its abundance fitness is 0.068 ± 0.1.

Q: With “BAG family molecular chaperone regulator 3 I28Y, O95817” as the substance, how does the abundance fitness read?
A: The abundance fitness was -0.19 ± 0.3.

Q: With “BAG family molecular chaperone regulator 3 I30A, O95817” as the substance, how does the abundance fitness read?
A: The abundance fitness was -0.011 ± 0.11.

Q: Which abundance fitness does the source give for “BAG family molecular chaperone regulator 3 I30C, O95817” here?
A: The abundance fitness was 0.028 ± 0.16.

Q: Which abundance fitness does the source give for “BAG family molecular chaperone regulator 3 I30D, O95817” here?
A: Its abundance fitness is -0.389 ± 0.14.

— the Human Domainome abundance scans (Beltran et al. 2025)
